In this data set the target is VEGF (vascular endothelial growth factor) (UniProt P15692-4 P15692-4:27-191). In words: competition; competition ELISA apparent ED50; reduction attributed to geometry of liposome display. To be noted: chain copies: 2.
Sequence of VEGF (vascular endothelial growth factor) (P15692 other isoform, or with tags, fused parts or gaps): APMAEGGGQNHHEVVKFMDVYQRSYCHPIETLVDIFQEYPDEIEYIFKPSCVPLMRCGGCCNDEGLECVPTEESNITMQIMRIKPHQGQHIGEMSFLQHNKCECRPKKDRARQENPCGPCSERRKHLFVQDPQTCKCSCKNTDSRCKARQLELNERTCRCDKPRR

B1: NX278-Liposome (mixed)
mixed: TTTTACCCUGAUGGUAGACGCCGGGGUGTTTTT
modifications: 5'-dialkylglycerol (DAG), embedded in DSPC:cholesterol liposome; PS at 1-4 and 29-33; 2'-OMe at 5,13,16,17,20,23-26,28; 2'-NH2 at 6-9,12,15,19,21,22,27
Take B1: the EC50 is ~100 nM.

Source of the values: patent publication US6465188, “Nucleic acid ligand complexes” (Gilead Sciences, Inc.).
